The record followed here is patent US20240209076A1 (KODIAK SCIENCES, published 2024).

In test [1] the target is T1, VEGF-A165 (UniProt P15692-4 27-191).
T1 construct: analyte of the Biacore assays
Put plainly: Biacore T200 SPR at 37 C, binder captured on Protein A chip, VEGF-A165 0.19 to 15 nM in five steps, 60 min dissociation, 1:1 Langmuir fit. The method, then:
FIGS. 14A-14F illustrate the results for a series of Biacore assays used to determine the affinity between Anti-VEGF agents and VEGF. Binding kinetics between molecules were measured using a Biacore T200 (GE Healthcare) at 37° C. in buffer HBS-EP+ containing 1 mg/mL BSA. […] The sensor chip surface was regenerated by 60 seconds injection of 10 mM Glycine, pH 1.7 at a flow rate of 50 μl/min. All sensorgrams were double reference subtracted and fit using a 1:1 Langmuir binding model.
On the technique in general: Surface plasmon resonance follows binding to a sensor surface in real time, without labels.

Test [2] concerns the target T2, human IL-6 (human, UniProt P05231 30-212). Description: SPR (Biacore), supernatant antibody on Protein A chip, IL-6 flowed, 37 C.
Test [3] concerns the target T2, human IL-6. Description: SPR (Biacore), purified antibody on Protein A chip, IL-6 flowed, 37 C. The method, then: Antibodies were captured on a Protein A chip (GE) by injecting 1:20 cell supernatant dilutions at 10 μL/min for 60 seconds. […] The sensor chip was regenerated by a 60 seconds injection of 10 mM Glycine pH 1.7 at the flow rate of 50 μL/min. […] For this setup, 1 μg/mL of purified antibody was injected over a Protein A chip at 10 μL/min for 25 seconds. […] The sensor chip was regenerated by a 60 seconds injection of 10 mM Glycine pH 1.7 at flow rate of 50 μL/min. Data analysis for supernatant and purified samples were performed using BIAevaluation software (GE). All sensorgrams were double reference subtracted and fit using a 1:1 Langmuir binding model.

T2 sequence (P05231 30-212 limits assumed): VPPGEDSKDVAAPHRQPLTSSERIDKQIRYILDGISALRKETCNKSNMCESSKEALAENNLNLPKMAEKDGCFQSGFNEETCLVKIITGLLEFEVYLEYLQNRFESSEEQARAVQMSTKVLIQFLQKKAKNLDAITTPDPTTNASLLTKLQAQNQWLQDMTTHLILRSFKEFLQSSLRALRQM
T1 sequence (P15692 other isoform, or with tags, fused parts or gaps limits assumed): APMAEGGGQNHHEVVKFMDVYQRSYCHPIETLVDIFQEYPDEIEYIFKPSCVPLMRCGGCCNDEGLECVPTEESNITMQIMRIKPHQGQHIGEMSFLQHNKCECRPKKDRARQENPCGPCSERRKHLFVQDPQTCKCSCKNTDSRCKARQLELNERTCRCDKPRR

B1: VEGFR_variant_1-Anti-IL-6 (T94I) (other)
fusion: SDTGRPFVEMYSEIPEIIHMTEGRELVIPCRVTSPNITVTLKKFPLDTLIPDGKRIIWDSRKGFIISNATYKEIGLLTCEATVNGHLYKTNYLIHRQTNTIIDVVLSPSHGIELSVGEKLVLNCTARTELNVGIDFNWEYPSSKHQHKKLVNRDLKTQSGSEMKKFLSTLTIDGVTRSDQGLYTCAASSGLMTKKNSTFVRVHEKGGGGSGGGGSEVQLVESGGGLVQPGGSLRLSCAASGFTFSPFAISWVRQAPGKGLEWVAKISPGGSWTYYSDTVTDRFTFSLDTSKSTAYLQMNSLRAEDTAVYYCARQLWGYYALDVWGQGTLVTVSSASTKGPSVFPLAPSSKSTSGGTAALGCLVKDYFPEPVTVSWNSGALTSGVHTFPAVLQSSGLYSLSSVVTVPSSSLGTQTYICNVNHKPSNTKVDKKVEPKSCDKTHTCPPCPAPEAAGAPSVFLFPPKPKDTLMISRTPEVTCVVVDVSHEDPEVKFNWYVDGVEVHNAKTKPREEQYNSTYRVVSVLTVLHQDWLNGKEYKCKVSNKALPAPIEKTISKAKGQPREPQVYTLPPSREEMTKNQVSLTCLVKGFYPSDIAVEWESNGQPENNYKTTPPVLDSDGSFFLYSKLTVDKSRWQQGNVFSCSVMHEALHNHYTQKSLSCSPGK
light: DIQLTQSPSSLSASVGDRVTITCSASISVSYLYWYQQKPGKAPKLLIYDDSSLASGVPSRFSGSGSGTDFTLTISSLQPEDFATYYCQQWSGYPYTFGQGTKVEIKRTVAAPSVFIFPPSDEQLKSGTASVVCLLNNFYPREAKVQWKVDNALQSGNSQESVTEQDSKDSTYSLSSTLTLSKADYEKHKVYACEVTHQGLSSPVTKSFNRGEC
In test [1], B1 gave a Kd of 0.0185 nM, a koff of 0.00199 s⁻¹ and a kon of 1.08e+08 M⁻¹ s⁻¹.

B2: VEGFR_variant_3-Anti-IL-6 (T94I/H95I) (other)
fusion: SDTGRPFVEMYSEIPEIIHMTEGRELVIPCRVTSPNITVTLKKFPLDTLIPDGKRIIWDSRKGFIISNATYKEIGLLTCEATVNGHLYKTNYLIIRQTNTIIDVVLSPSHGIELSVGEKLVLNCTARTELNVGIDFNWEYPSSKHQHKKLVNRDLKTQSGSEMKKFLSTLTIDGVTRSDQGLYTCAASSGLMTKKNSTFVRVHEKGGGGSGGGGSEVQLVESGGGLVQPGGSLRLSCAASGFTFSPFAISWVRQAPGKGLEWVAKISPGGSWTYYSDTVTDRFTFSLDTSKSTAYLQMNSLRAEDTAVYYCARQLWGYYALDVWGQGTLVTVSSASTKGPSVFPLAPSSKSTSGGTAALGCLVKDYFPEPVTVSWNSGALTSGVHTFPAVLQSSGLYSLSSVVTVPSSSLGTQTYICNVNHKPSNTKVDKKVEPKSCDKTHTCPPCPAPEAAGAPSVFLFPPKPKDTLMISRTPEVTCVVVDVSHEDPEVKFNWYVDGVEVHNAKTKPREEQYNSTYRVVSVLTVLHQDWLNGKEYKCKVSNKALPAPIEKTISKAKGQPREPQVYTLPPSREEMTKNQVSLTCLVKGFYPSDIAVEWESNGQPENNYKTTPPVLDSDGSFFLYSKLTVDKSRWQQGNVFSCSVMHEALHNHYTQKSLSCSPGK
light: DIQLTQSPSSLSASVGDRVTITCSASISVSYLYWYQQKPGKAPKLLIYDDSSLASGVPSRFSGSGSGTDFTLTISSLQPEDFATYYCQQWSGYPYTFGQGTKVEIKRTVAAPSVFIFPPSDEQLKSGTASVVCLLNNFYPREAKVQWKVDNALQSGNSQESVTEQDSKDSTYSLSSTLTLSKADYEKHKVYACEVTHQGLSSPVTKSFNRGEC
Consider B2, for which, in test [1], the Kd was 0.0187 nM, the koff was determined as 0.00266 s⁻¹ and the kon was 1.42e+08 M⁻¹ s⁻¹.

B3: VEGFR_variant_2-Anti-IL-6 (H95I) (other)
fusion: SDTGRPFVEMYSEIPEIIHMTEGRELVIPCRVTSPNITVTLKKFPLDTLIPDGKRIIWDSRKGFIISNATYKEIGLLTCEATVNGHLYKTNYLTIRQTNTIIDVVLSPSHGIELSVGEKLVLNCTARTELNVGIDFNWEYPSSKHQHKKLVNRDLKTQSGSEMKKFLSTLTIDGVTRSDQGLYTCAASSGLMTKKNSTFVRVHEKGGGGSGGGGSEVQLVESGGGLVQPGGSLRLSCAASGFTFSPFAISWVRQAPGKGLEWVAKISPGGSWTYYSDTVTDRFTFSLDTSKSTAYLQMNSLRAEDTAVYYCARQLWGYYALDVWGQGTLVTVSSASTKGPSVFPLAPSSKSTSGGTAALGCLVKDYFPEPVTVSWNSGALTSGVHTFPAVLQSSGLYSLSSVVTVPSSSLGTQTYICNVNHKPSNTKVDKKVEPKSCDKTHTCPPCPAPEAAGAPSVFLFPPKPKDTLMISRTPEVTCVVVDVSHEDPEVKFNWYVDGVEVHNAKTKPREEQYNSTYRVVSVLTVLHQDWLNGKEYKCKVSNKALPAPIEKTISKAKGQPREPQVYTLPPSREEMTKNQVSLTCLVKGFYPSDIAVEWESNGQPENNYKTTPPVLDSDGSFFLYSKLTVDKSRWQQGNVFSCSVMHEALHNHYTQKSLSCSPGK
light: DIQLTQSPSSLSASVGDRVTITCSASISVSYLYWYQQKPGKAPKLLIYDDSSLASGVPSRFSGSGSGTDFTLTISSLQPEDFATYYCQQWSGYPYTFGQGTKVEIKRTVAAPSVFIFPPSDEQLKSGTASVVCLLNNFYPREAKVQWKVDNALQSGNSQESVTEQDSKDSTYSLSSTLTLSKADYEKHKVYACEVTHQGLSSPVTKSFNRGEC
In test [1], B3 yielded a Kd of 0.0143 nM, a koff of 0.00164 s⁻¹ and a kon of 1.15e+08 M⁻¹ s⁻¹.

B4: anti-IL-6 antibody, heavy chain G66D / light chain M32L, M50D, N52S, M88Q (antibody, human IgG1, V domains shown)
VH: EVQLVESGGGLVQPGGSLRLSCAASGFTFSPFAMSWVRQAPGKGLEWVAKISPGGSWTYYSDTVTDRFTFSLDTSKSTAYLQMNSLRAEDTAVYYCARQLWGYYALDIWGQGTLVTVSS
VL: DIQLTQSPSSLSASVGDRVTITCSASISVSYLYWYQQKPGKAPKLLIYDDSSLASGVPSRFSGSGSGTDFTLTISSLQPEDFATYYCQQWSGYPYTFGQGTKVEIK
notes: Human IgG1
B4: in test [2], the Kd was 0.296 nM, the koff came to 0.000483 s⁻¹ and the on-rate (kon) amounted to 1.63e+06 M⁻¹ s⁻¹. In test [3], this molecule gave a Kd of 0.244 nM, a koff of 0.000412 s⁻¹ and a kon of 1.69e+06 M⁻¹ s⁻¹.

B5: anti-IL-6 antibody, heavy chain S35H, G66D / light chain M32L, M50D, N52S, M88Q (antibody, human IgG1, V domains shown)
VH: EVQLVESGGGLVQPGGSLRLSCAASGFTFSPFAMHWVRQAPGKGLEWVAKISPGGSWTYYSDTVTDRFTFSLDTSKSTAYLQMNSLRAEDTAVYYCARQLWGYYALDIWGQGTLVTVSS
VL: DIQLTQSPSSLSASVGDRVTITCSASISVSYLYWYQQKPGKAPKLLIYDDSSLASGVPSRFSGSGSGTDFTLTISSLQPEDFATYYCQQWSGYPYTFGQGTKVEIK
notes: Human IgG1
On to B5, for which, in test [2], binding was characterised by a dissociation constant (Kd) of 0.166 nM, the koff stood at 0.000539 s⁻¹ and the kon is 3.24e+06 M⁻¹ s⁻¹. In test [3], this molecule displayed a Kd of 0.212 nM, a koff of 0.000254 s⁻¹ and a kon of 1.2e+06 M⁻¹ s⁻¹.

B6: anti-IL-6 antibody, heavy chain T65Q, G66D / light chain M32L, M50D, N52S, M88Q (antibody, human IgG1, V domains shown)
VH: EVQLVESGGGLVQPGGSLRLSCAASGFTFSPFAMSWVRQAPGKGLEWVAKISPGGSWTYYSDTVQDRFTFSLDTSKSTAYLQMNSLRAEDTAVYYCARQLWGYYALDIWGQGTLVTVSS
VL: DIQLTQSPSSLSASVGDRVTITCSASISVSYLYWYQQKPGKAPKLLIYDDSSLASGVPSRFSGSGSGTDFTLTISSLQPEDFATYYCQQWSGYPYTFGQGTKVEIK
notes: Human IgG1
Take B6: in test [2], the equilibrium dissociation constant (Kd) is 0.258 nM, the koff was determined as 0.000562 s⁻¹ and the kon amounted to 2.18e+06 M⁻¹ s⁻¹. In test [3], the Kd turned out to be 0.209 nM, the koff turned out to be 0.00038 s⁻¹ and the kon was found to be 1.82e+06 M⁻¹ s⁻¹.

B7: anti-IL-6 antibody, heavy chain T63Q, G66D / light chain M32L, M50D, N52S, M88Q (antibody, human IgG1, V domains shown)
VH: EVQLVESGGGLVQPGGSLRLSCAASGFTFSPFAMSWVRQAPGKGLEWVAKISPGGSWTYYSDQVTDRFTFSLDTSKSTAYLQMNSLRAEDTAVYYCARQLWGYYALDIWGQGTLVTVSS
VL: DIQLTQSPSSLSASVGDRVTITCSASISVSYLYWYQQKPGKAPKLLIYDDSSLASGVPSRFSGSGSGTDFTLTISSLQPEDFATYYCQQWSGYPYTFGQGTKVEIK
notes: Human IgG1
In test [2], B7 yielded a Kd of 0.259 nM, a koff of 0.000461 s⁻¹ and a kon of 1.78e+06 M⁻¹ s⁻¹. In test [3], this molecule came in with a Kd of 0.201 nM, a koff of 0.000341 s⁻¹ and a kon of 1.69e+06 M⁻¹ s⁻¹.

B8: anti-IL-6 antibody, heavy chain T63K, G66D / light chain M32L, M50D, N52S, M88Q (antibody, human IgG1, V domains shown)
VH: EVQLVESGGGLVQPGGSLRLSCAASGFTFSPFAMSWVRQAPGKGLEWVAKISPGGSWTYYSDKVTDRFTFSLDTSKSTAYLQMNSLRAEDTAVYYCARQLWGYYALDIWGQGTLVTVSS
VL: DIQLTQSPSSLSASVGDRVTITCSASISVSYLYWYQQKPGKAPKLLIYDDSSLASGVPSRFSGSGSGTDFTLTISSLQPEDFATYYCQQWSGYPYTFGQGTKVEIK
notes: Human IgG1
As for B8, in test [2], the dissociation constant (Kd) is 0.246 nM, the koff stood at 0.000529 s⁻¹ and the on-rate constant (kon) was found to be 2.15e+06 M⁻¹ s⁻¹. Besides, in test [3], the affinity, expressed as Kd, was 0.252 nM; the koff was determined as 0.000401 s⁻¹; the kon worked out at 1.59e+06 M⁻¹ s⁻¹.

B9: anti-IL-6 antibody, heavy chain T63E, G66D / light chain M32L, M50D, N52S, M88Q (antibody, human IgG1, V domains shown)
VH: EVQLVESGGGLVQPGGSLRLSCAASGFTFSPFAMSWVRQAPGKGLEWVAKISPGGSWTYYSDEVTDRFTFSLDTSKSTAYLQMNSLRAEDTAVYYCARQLWGYYALDIWGQGTLVTVSS
VL: DIQLTQSPSSLSASVGDRVTITCSASISVSYLYWYQQKPGKAPKLLIYDDSSLASGVPSRFSGSGSGTDFTLTISSLQPEDFATYYCQQWSGYPYTFGQGTKVEIK
notes: Human IgG1
In test [2], B9 registered a Kd of 0.242 nM, a koff of 0.000485 s⁻¹ and a kon of 2e+06 M⁻¹ s⁻¹. For the same molecule, in test [3], binding was put at a Kd of 0.198 nM, the koff came out at 0.000327 s⁻¹ and the kon is 1.65e+06 M⁻¹ s⁻¹.

What is called Kd is the equilibrium constant for the complex coming apart. By koff is commonly meant the first-order rate constant of dissociation. A high value points to fast dissociation. Usually kon stands for a measure of how fast the partners come together. Lower therefore signals slower complex formation.
